Numbering of substitutions follows the chain as printed. One block for each binder: values may come before it.
Biological target: insulin (Homo sapiens (species ), UniProt P01308)
Assay: ELISA

Sequence of insulin (P01308 whole entry, looked up): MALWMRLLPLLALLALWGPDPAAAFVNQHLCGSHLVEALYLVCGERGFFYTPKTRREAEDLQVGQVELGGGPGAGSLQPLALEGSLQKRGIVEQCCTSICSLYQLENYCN

binding result: no binding
B1: ibalizumab L chain mutant LM52 (antibody, V domains shown)
VH: QVQLQQSGPEVVKPGASVKMSCKASGYTFTSYVIHWVRQKPGQGLDWIGYINPYNDGTDYDEKFKGKATLTSDTSTSTAYMELSSLRSEDTAVYYCAREKDNYATGAWFAYWGQGTLVTVSS
VL: DIVMTQSPDSLAVSLGERVTMNCKSSQSLLYSTNQKNYLAWYQQKPGQSPKLLIYWANSTESGVPDRFSGSGSGTDFTLTISSVQAEDVAVYYCQQYYSYRTFGGGTKLEIK

binding result: no binding
B2: ibalizumab (wild type) (antibody, V domains shown)
VH: B1 VH
VL: B1 VL with N58S, S59T, T60R

— article PMC3825789 (Nature biotechnology, 2013)
